For assay [1], the target named is T1, NETL-1 cyclized synthetic peptide immunogen (cyclized on resin through the cysteines C4 and C27; N-terminal cysteine used for conjugation to maleimide-activated plates).
T1 construct: Aβ residues 9-18, then Pro-Asn, then the same ten residues backwards; also called cyclized peptide; the immunogen
T1 peptide: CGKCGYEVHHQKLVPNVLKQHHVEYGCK
As to the kind of experiment: indirect ELISA, peptide on maleimide-activated plate. From the text: (§1) The rationale behind the NETL-1 immunogen was that a more focused epitope formed by a cyclized peptide may restrict the response to a dimer structure derived from the chosen 10aa sequence with minimal or no induction of responses to the monomer 10aa peptide sequence found within full length Aβ40. Both responses were observed. We can account for this, in part, by the fact that there may always be a minimal epitope available for recognition that is cross-reactive with the monomer sequence no matter how small the peptide structure. Several monoclonal antibodies specific for both NETL-1 and NETL-2 were isolated. Two isolates, 7a and 1g stood out that bound to NETL-1 but not to NETL-2 or Aβ40. These isolates were sub-cloned for further characterization. Two isolated subclones, Mab 71A1 and 1G5 were chosen, grown in tissue culture and purified for confirmation of specificity and for future studies. Both 71A1 and 1G5 monoclonal antibodies bound to the cyclized peptide, NETL-1 and not to control wells, Aβ40 monomer peptide or control peptide NETL-2 (FIG. 2). FIG. 2 is a standard, indirect enzyme linked immunosorbent assay (ELISA) with the purified monoclonal antibodies assayed for binding to Aβ40, NETL 1 or NETL 2 peptides conjugated to malemide-activated (SH-reactive) micro titer plates. After one hour incubation, the wells were washed and then 100 ul of a secondary, Horseradish peroxidase (HRPO)-conjugated goat anti-mouse antibody was added and the plates, incubated for an additional hour before addition of TMB (3,3′,5,5′-Tetramethylbenzidine) substrate. Absorbance was measured in a spectrophotometer at 650 nm.
(ELISA stands for enzyme-linked immunosorbent assay.)

Assay [2] concerns the target T2, full length Aβ40 with a C-terminal cysteine (conjugated to maleimide-activated plate through the added cysteine).
T2 construct: also called Aβ40 monomer peptide
The description is as above.
Excerpt: as §1

Another assay concerns the target T3, peptide mimetic 1.
T3 construct: also called peptide 1
T3 peptide: QIYEVHHRGYTD
The experiment in a line: phage display panning (Ph.D.-12 library) on immobilized 71A1. From the text: (§2) A New England Biolabs (NEB) Ph.D.-12™ Phage Display Peptide Library Kit (instructions attached) was used to isolate amino acid residue peptide ligands (referred to herein as peptide mimetics) that bound to immobilized Mab 71A1. The New England Biolabs Ph.D.-12™ Phage Display Peptide Library Kit is a combinatorial library of random, 12 amino acid peptides (12-mers) fused to a minor coat protein (pIII) of the M13 bacteriophage. The peptide was expressed as a fusion with a coat protein that produces a display of the fused protein on the surface of the bacteriophage. The library consists of 2.7×109 electroporated sequences, amplified once to yield approximately 55 copies of each sequence in 10 μl of the supplied phage.
(§3) Immobilized 71A1 antibody was used to isolate the 12 amino acid peptides, shown in FIG. 13, that bound to the variable region. Thermo Scientific™ AminoLink Plus Coupling Resin was used to immobilize Mab 71A1. Negative control particles were made using monoclonal antibody 3C7 with specificity for an irrelevant peptide sequence. The Thermo Scientific™ AminoLink Plus Coupling Resin Protocol is provided that was used to produce the 71A1 particles panned with the NEB library. Briefly, 2 mL aminolink particle slurry was washed twice with 10 mL, 0.1 M sodium bicarbonate buffer pH 10 in a 15 mL conical tube by centrifugation for 10 minutes at 2000×g. 10 mgs of 71A1 antibody in this binding buffer was then added to the particles transferred to a 2 mL eppendorph tube and rotated at room temperature for 2 hours. The slurry was then added to a Millipore, Ultrafree-MC centrifugal filter unit and the resin washed 3× in 2 mL, 0.1M sodium phosphate, 0.15M NaCl, pH 7.2 binding buffer. Spun particles were then mixed with 2 mL pH 7.2 buffer and 40 μl of 50 mM Sodium Cyanoborohydride Solution and rotated for 4 hours. The aminoLink gel contains aldehyde functional groups that spontaneously react with primary amines on the antibody. The Schiff base bonds that form are then reduced to stable secondary amine bonds in the presence of the mild reducing agent, sodium cyanoborohydride. Particles were then washed twice with 2 mL 1M Tris HCL, pH 7.4, resuspended in 2 mL of this same buffer and 40 μl Sodium cyanoborohydride to block unbound sites on the particles, and rotated for 30 minutes. Particles washed 5 times with 1M sodium chloride were suspended in 1 mL PBS.

The target in a further assay is T4, peptide mimetic 2.
T4 construct: As for peptide mimetic 1; also called peptide 2
T4 peptide: NLHQYPTAMQAR
The assay is described as above.
Excerpt: as §2, §3

In a further assay the target is T5, peptide mimetic 3.
T5 construct: As for peptide mimetic 1; also called peptide 3
T5 peptide: SPPTYEIHHFSP
The description is as above.
Excerpt: as §2, §3

The next assay concerns the target T6, peptide mimetic 4.
T6 construct: As for peptide mimetic 1; also called peptide 4
T6 peptide: YQIHHNTQKRGG
Described as above.
Excerpt: as §2, §3

A further assay addresses T7, peptide mimetic 5.
T7 construct: As for peptide mimetic 1; also called peptide 5
T7 peptide: DSVVPSYEVHHK
The assay is described as above.
Excerpt: as §2, §3

In the next assay the target is T8, peptide mimetic 6.
T8 construct: As for peptide mimetic 1; also called peptide 6
T8 peptide: TPNNTTSHRYPD
The description is as above.
Excerpt: as §2, §3

Another assay deals with T9, peptide mimetic 7.
T9 construct: As for peptide mimetic 1; also called peptide 7
T9 peptide: GWYEIHHPSQRA
Described as above.
Excerpt: as §2, §3

Another assay addresses T10, peptide mimetic 9.
T10 construct: As for peptide mimetic 1; also called peptide 9
T10 peptide: GPHTYPPQIALT
The assay is described as above.
Excerpt: as §2, §3

The target of a further assay is T11, peptide mimetic 10.
T11 construct: As for peptide mimetic 1; also called peptide 10
T11 peptide: EMAPVASANLPP
Described as above.
Excerpt: as §2, §3

The target of another assay is T12, peptide mimetic 12.
T12 construct: As for peptide mimetic 1; also called peptide 12
T12 peptide: SPSHMYPSSLIQ
The assay is described as above.
Excerpt: as §2, §3

Assay [3] addresses T13, soluble Aβ / Aβ oligomers (oAβ) of human AD brain extracts (human, UniProt P05067 672-713).
T13 construct: Natural mixture; also called Aβ from human brain soaking extract; AD brain soaking extract oAβ
As to the kind of experiment: 71A1 capture / 3D6 detector sandwich immunoassay, sample with or without 8M GnCl.

In assay [4] the target is T14, Aβ / Aβ oligomers in human CSF (human, UniProt P05067 672-713).
T14 construct: Natural mixture; also called CSF Aβ; CSF Aβ oligomers
Described as above.

The target in assay [5] is T15, Aβ oligomers (oAβ) in human plasma (human, UniProt P05067 672-713).
T15 construct: Natural mixture; also called plasma oAβ; 71A1-positive oligomers in plasma
Described as above.

The target in another assay is T16, peptide mimetic 8.
T16 construct: As for peptide mimetic 1; also called peptide 8
T16 peptide: SYELHHKPLHAQ
The experiment in a line: indirect ELISA, peptide at 10 µg/mL on maleimide-activated plate, absorbance at 650 nm. The method, then: (§4) A standard, indirect enzyme linked immunosorbent assay (ELISA) with purified monoclonal antibody 71A1 was used to assay for binding to peptide mimetics 1-13 (sequences in FIG. 13) conjugated to maleimide-activated micro titer plates at 10 μg/mL in 0.1M Sodium bicarbonate buffer pH10 and blocked with PBS and 2% BSA. After one hour incubation, the wells were washed and then 100 ul of a secondary, Horseradish peroxidase (HRPO)-conjugated goat anti-mouse antibody was added and the plates, incubated for an additional hour before addition of TMB (3,3′,5,5′-Tetramethylbenzidine) substrate. Absorbance was measured in a spectrophotometer at 650 nm.

A further assay has as its target T17, peptide mimetic 11.
T17 construct: As for peptide mimetic 1; also called peptide 11
T17 peptide: NMYEWNHKDPNM
Described as above. The method, then: as §4

The next assay deals with T18, peptide mimetic 13.
T18 construct: As for peptide mimetic 1; also called peptide 13
T18 peptide: QVYEVHHRGYTD
The assay is described as above. The procedure:
as §4

The target of assay [6] is T19, S26C Aβ40 reduced by DTT to its monomeric form.
T19 construct: The dimer of m16 after reduction with DTT; also called reduced monomeric counterpart; monomeric Aβ
As to the kind of experiment: 71A1 capture / 3D6 detector sandwich immunoassay, S26C Aβ40 dimer native or reduced by DTT.

T13 sequence (P05067 672-713): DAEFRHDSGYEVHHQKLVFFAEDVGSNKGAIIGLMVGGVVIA
T14 sequence (P05067 672-713): as above
T15 sequence (P05067 672-713): as above

B1: monoclonal antibody 71A1 (antibody, V domains shown)
VH: EVQLQESGAELVRPGVSVKLSCKTSDYTFTSYWLHWFKQRPEQGLERIGEIDPSNGDADYSEKFKSKATLTVDKSSTTAYMQLASLTSEDSAVYYCAREAYGHYFDYWGQGTTLTVSS
VL: DVVMTQTPLSLPVSLGDQASISCRSSQSLEHSNGNTYLHWYLQKPGQSPKLLIYKLSNRFSGVPDRFSGSGSGTDFTLKISRVEAEDLGVYFCSQSTHVPYTFGGGTKLEIK
notes: Biotinylated when used as capture on streptavidin beads, resin or plates; also called Mab 71A1; mab 71 A1
On to B1, for which the binding result is recorded as “binds” in assay [1]; “no binding” in assay [2]; “binds” in the assay with peptide mimetic 1; “binds” in the assay with peptide mimetic 2; “binds” with peptide mimetic 3; “binds” with peptide mimetic 4. Moreover, the binding result with peptide mimetic 5, in the assay with peptide mimetic 6, in the assay with peptide mimetic 7, in the assay with peptide mimetic 9, with peptide mimetic 10 and with peptide mimetic 12 was “binds” throughout. Besides, the binding result in the assay with peptide mimetic 8, with peptide mimetic 11 and in the assay with peptide mimetic 13 was “binds” throughout. The “decrease of 71A1/3D6 signal after 8M GnCl denaturation” value in [3] was above 70%; in assay [4] it was above 99%; in assay [5], above 84%. The “fold less binding than to higher order Aβ (non-reduced S26C dimer)” value in assay [6] is above 100 fold.

B2: monoclonal antibody 1G5 (antibody, V domains shown)
VH: QVQLQQPGAELVRPGVSVKLSCKTSDYTFTSYWLHWFKQRPEQGLERIGEIDPSNGDADYSEKFKSKATLTVDKSSTTAYMQLASLTSEDSAVYYCAREAYGHYFDYWGQGTTLTVSS
VL: DVVMTQTPLSLPVSLGDQASISCRSSQSLEHSNGNTYLHWYLQKPGQSPKLLIYKLSNRFSGVPDRFSGSGSGTDFTLKISRVEAEDLGVYFCSQSTHVPYTFGGGTKLEIK
notes: Biotinylated when used as capture; also called Mab 1G5; isolate 1g
In the case of B2, the figures for the binding result in assay [1] and in assay [2] were “binds” and “no binding”, respectively.

Source of the values: patent US20240358805A1 (BRIGHAM AND WOMEN S HOSPITAL, published 2024).
